Details: Aspergillus oryzae (strain ATCC 42149 / RIB 40), pH 7, 25 °C, GdnHCl, CD, cacodylate 0.013 M, reversible: yes, whole UniProt chain shown

B1: Guanyl-specific ribonuclease T1 wild type, P00651 (protein)
chain: MMYSKLLTLTTLLLPTALALPSLVERACDYTCGSNCYSSSDVSTAQAAGYQLHEDGETVGSNSYPHKYNNYEGFDFSVSSPYYEWPILSSGDVYSGGSPGADRVVFNENNQLAGVITHTGASGNNFVECT
Question: For B1, which denaturant m value ((NH4)2SO4 0.15 M) is on record?
Answer: 2.85 kcal/mol/M

Question: What about the “denaturant midpoint (higher = more stable)” value (from here on “denaturant midpoint”) ((NH4)2SO4 0.15 M) of the same protein?
Answer: 3.16 M

Question: What about the unfolding free energy ((NH4)2SO4 0.15 M) of the same protein?
Answer: 9.6 kcal/mol

Question: What about the denaturant m value ((NH4)2SO4 0.30 M) of the same protein?
Answer: 2.9 kcal/mol/M

Question: And the “denaturant midpoint” value ((NH4)2SO4 0.30 M)?
Answer: 3.37 M

Question: And the unfolding free energy ((NH4)2SO4 0.30 M)?
Answer: 10.3 kcal/mol

Question: And the denaturant m value (CsCl 0.49 M)?
Answer: 3.18 kcal/mol/M

Question: And the “denaturant midpoint” value (CsCl 0.49 M)?
Answer: 2.81 M

Question: What about the unfolding free energy (CsCl 0.49 M) of the same protein?
Answer: 8.9 kcal/mol

Question: What about the denaturant m value (KCl 0.1 M) of the same protein?
Answer: 3.04 kcal/mol/M

Question: What about the “denaturant midpoint” value (KCl 0.1 M) of the same protein?
Answer: 2.9 M

Question: What about the unfolding free energy (KCl 0.1 M) of the same protein?
Answer: 8.8 kcal/mol

Question: And the denaturant m value (Li2SO4 0.20 M)?
Answer: 2.82 kcal/mol/M

Question: What about the “denaturant midpoint” value (Li2SO4 0.20 M) of the same protein?
Answer: 3.16 M

Question: What about the unfolding free energy (Li2SO4 0.20 M) of the same protein?
Answer: 9.6 kcal/mol

Question: What about the denaturant m value (Li2SO4 0.40 M) of the same protein?
Answer: 2.82 kcal/mol/M

Question: And the “denaturant midpoint” value (Li2SO4 0.40 M)?
Answer: 3.35 M

Question: And the unfolding free energy (Li2SO4 0.40 M)?
Answer: 10.2 kcal/mol

Question: What about the denaturant m value (LiBr 0.76 M) of the same protein?
Answer: 3.14 kcal/mol/M

Question: And the “denaturant midpoint” value (LiBr 0.76 M)?
Answer: 2.15 M

Question: And the unfolding free energy (LiBr 0.76 M)?
Answer: 6.55 kcal/mol

Question: What about the denaturant m value (LiBr 1.52 M) of the same protein?
Answer: 3.41 kcal/mol/M

Question: What about the “denaturant midpoint” value (LiBr 1.52 M) of the same protein?
Answer: 1.48 M

Question: What about the unfolding free energy (LiBr 1.52 M) of the same protein?
Answer: 4.51 kcal/mol

Question: What about the denaturant m value (LiCi 0.50 M) of the same protein?
Answer: 2.71 kcal/mol/M

Question: And the “denaturant midpoint” value (LiCi 0.50 M)?
Answer: 2.75 M

Question: And the unfolding free energy (LiCi 0.50 M)?
Answer: 8.36 kcal/mol

Question: And the denaturant m value (LiCi 0.99 M)?
Answer: 3.13 kcal/mol/M

Question: What about the “denaturant midpoint” value (LiCi 0.99 M) of the same protein?
Answer: 2.57 M

Question: And the unfolding free energy (LiCi 0.99 M)?
Answer: 7.8 kcal/mol

Question: What about the denaturant m value (LiSCN 0.09 M) of the same protein?
Answer: 3.05 kcal/mol/M

Question: And the “denaturant midpoint” value (LiSCN 0.09 M)?
Answer: 2.72 M

Question: And the unfolding free energy (LiSCN 0.09 M)?
Answer: 8.27 kcal/mol

Question: And the denaturant m value (LiSCN 0.34 M)?
Answer: 2.87 kcal/mol/M

Question: What about the “denaturant midpoint” value (LiSCN 0.34 M) of the same protein?
Answer: 2.06 M

Question: What about the unfolding free energy (LiSCN 0.34 M) of the same protein?
Answer: 6.25 kcal/mol

Question: And the denaturant m value (LiSCN 0.69 M)?
Answer: 3.08 kcal/mol/M

Question: What about the “denaturant midpoint” value (LiSCN 0.69 M) of the same protein?
Answer: 1.34 M

Question: And the unfolding free energy (LiSCN 0.69 M)?
Answer: 4.08 kcal/mol

Question: And the denaturant m value (NH4Cl 0.45 M)?
Answer: 3.02 kcal/mol/M

Question: And the “denaturant midpoint” value (NH4Cl 0.45 M)?
Answer: 2.83 M

Question: What about the unfolding free energy (NH4Cl 0.45 M) of the same protein?
Answer: 8.5 kcal/mol

Question: What about the denaturant m value (Na2SO4 0.15 M) of the same protein?
Answer: 2.83 kcal/mol/M

Question: What about the “denaturant midpoint” value (Na2SO4 0.15 M) of the same protein?
Answer: 3.12 M

Question: What about the unfolding free energy (Na2SO4 0.15 M) of the same protein?
Answer: 9.49 kcal/mol

Question: And the denaturant m value (NaBr 0.50 M)?
Answer: 3.42 kcal/mol/M

Question: What about the “denaturant midpoint” value (NaBr 0.50 M) of the same protein?
Answer: 2.53 M

Question: What about the unfolding free energy (NaBr 0.50 M) of the same protein?
Answer: 7.7 kcal/mol

Question: What about the denaturant m value (NaBr 0.99 M) of the same protein?
Answer: 2.97 kcal/mol/M

Question: What about the “denaturant midpoint” value (NaBr 0.99 M) of the same protein?
Answer: 2.27 M

Question: What about the unfolding free energy (NaBr 0.99 M) of the same protein?
Answer: 6.91 kcal/mol

Question: And the denaturant m value (NaSCN 0.25 M)?
Answer: 3.11 kcal/mol/M

Question: What about the “denaturant midpoint” value (NaSCN 0.25 M) of the same protein?
Answer: 2.39 M

Question: And the unfolding free energy (NaSCN 0.25 M)?
Answer: 7.27 kcal/mol

Question: What about the denaturant m value (NaSCN 0.49 M) of the same protein?
Answer: 2.93 kcal/mol/M

Question: What about the “denaturant midpoint” value (NaSCN 0.49 M) of the same protein?
Answer: 1.91 M

Question: What about the unfolding free energy (NaSCN 0.49 M) of the same protein?
Answer: 5.8 kcal/mol

Question: What about the denaturant m value (RbCl 0.50 M) of the same protein?
Answer: 2.89 kcal/mol/M

Question: What about the “denaturant midpoint” value (RbCl 0.50 M) of the same protein?
Answer: 2.89 M

Question: What about the unfolding free energy (RbCl 0.50 M) of the same protein?
Answer: 8.4 kcal/mol

Source: FireProtDB (doi:10.1139/o86-132)
